In paper PMC4872103 one finds binding result and binding signal data, which are given here for 3 molecules.

In data set [1] the target is T1, PU.1 ETS domain (PU.1ΔN167) (murine, UniProt P17433 167-272). The experiment in a line: competition.
For data set [2], the target named is T1, PU.1 ETS domain (PU.1ΔN167). The experiment in a line: fluorescence anisotropy. In general terms: In fluorescence polarisation assays a small probe gives low polarisation when free and higher when bound to something large.
For data set [3] the target is unchanged. The experiment in a line: competition. The source holds these as a separate data set.

B1: NS (dsDNA)
DNA 1: GCGAATAAGCGAGAGTGAAACCG
DNA 2: CGGTTTCACTCTCGCTTATTCGC
For B1, the binding result in data set [1] is “no binding”.

B2: Alexa Fluor 488 end-labeled duplex (dsDNA)
DNA 1: CAAGCGGAAGTGAG
DNA 2: CTCACTTCCGCTTG
Turning to B2, in data set [2], the binding result was “binds”.

B3: [5']AGC (dsDNA)
DNA 1: GCGAATAAGCGGAAGTGAAACCG
DNA 2: CGGTTTCACTTCCGCTTATTCGC
In the case of B3, the binding signal in data set [3] was ~1 Kd ratio to Cy3-[5']AGC (equal within experimental uncertainty).
